Reference: patent US20110039788, “COMPOSITIONS, METHODS AND KITS FOR DETECTING AND TREATING CANCER” (University of Miami, published 2011)

Legend:
[1] = biological target: T1, TCF4 (TCF7L2) DNA-binding domain (UniProt Q9NQB0 Q9NQB0:265-496); experiment: EMSA; high affinity; 1 ug protein in 15 ul; conditions: tags: His (pET28A), expressed in E. coli; label: 32P 5' end
Procedure: (§1) Double-stranded DNA oligonucleotides (30 mers) containing the genomic TBE sites T1-T4 with flanking sequences were 5′ end-labeled with ³²P and 5000 cpm/μl of labeled probe was incubated with 1 μg of recombinant His-TCF4 protein in a total volume of 15 μl binding buffer. For competition and supershift experiments, His-TCF4 was pre-incubated with unlabelled DNA oligonucleotides at 400-fold excess or with 1-5 μg of anti-6× His tag antibody (Abcam) for 10 minutes prior to addition of labeled probe. Samples were separated on 5% non-denaturing polyacrylamide gels for 1 h at 400V. Protein-DNA complexes were detected by phosphoimaging on a Storm 840 Scanner (Molecular Dynamics).
To elucidate the molecular pathways acting upstream of Lbh, murine Lbh genomic sequences were screened for potential transcription factor binding sites. This in silico search identified four conserved putative TCF/LEF-binding elements (TBEs) in the Lbh gene locus. Two TBEs with the consensus motif 5′-CTTTG(A/T)(A/T)-3′ were located within an enhancer region (E1)-6245 (T1) and −6195 (T2) base pairs (bp) upstream of the Lbh transcriptional start site (FIG. 1A). In addition, two consensus TBEs were found in an enhancer (E2) contained within the first intron of the Lbh gene at positions +1558 (T3) and +2145 (T4) by (FIG. 1A). To directly assay for TCF binding to these sites, electrophoretic mobility shift analysis (EMSA) was performed. Recombinant TCF4 protein bound with high affinity to all Lbh-specific TBEs (T1-T4), but not to an unspecific oligonucleotide (FIG. 1B). TCF4 binding to these sites was efficiently competed by addition of 400-fold excess of unlabeled wild-type (+) oligonucleotide as well as increasing amounts of an antibody against recombinant TCF4 protein, but not by addition of 400-fold excess of mutant (m) oligonucleotide (FIGS. 1B, C). Subsequently, cell-based reporter assays were performed to test whether the Lbh genespecific TBE sites (T1-T4) were functionally responsive to overexpression of β-catenin, which is the Wnt-inducible component of the TCF/β-catenin transcriptional complex. […]

[2] = biological target: T1, TCF4 (TCF7L2) DNA-binding domain; experiment: EMSA; high affinity; anti-His supershift assay; conditions: tags: His (pET28A), expressed in E. coli; label: 32P 5' end
Procedure: as §1

T1 sequence (Q9NQB0 265-496, one chain of several): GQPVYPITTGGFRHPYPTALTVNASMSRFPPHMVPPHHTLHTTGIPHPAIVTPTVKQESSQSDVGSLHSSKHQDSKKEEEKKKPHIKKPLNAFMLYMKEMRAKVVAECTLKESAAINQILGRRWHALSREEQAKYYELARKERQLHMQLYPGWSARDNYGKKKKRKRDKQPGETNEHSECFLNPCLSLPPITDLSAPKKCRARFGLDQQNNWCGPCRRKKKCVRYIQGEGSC

B1: Lbh TBE T2 (dsDNA)
DNA 1: TCTTTGATAT
DNA 2: ATATCAAAGA
B1: binds [1].

B2: Lbh TBE T3 (dsDNA)
DNA 1: GCTTTGAAGA
DNA 2: TCTTCAAAGC
B2: binds [2].

B3: Lbh TBE T4 (dsDNA)
DNA 1: ACTTTGTACT
DNA 2: AGTACAAAGT
B3: binds [1].

B4: Lbh TBE T1 (dsDNA)
DNA 1: CCTTTGAATC
DNA 2: GATTCAAAGG
B4: binds [1].
